# Data reported in the RNAGym collection of RNA variant scans (doi:10.1021/acssynbio.7b00057).
# B1: Pistol ribozyme (parent)
# chain: GGGUCGUUGUUCCAUAAUCGCGUGGAUAUGGCACGCAAGUUUCUACCGGGCACCGUAAAUGUCCGACUGGAGCCGUUCGGGCGGCUAUAAACAGACCUCAGGCCCGAAGCGUGGCGGCACCUGCCGCCGGUGGUAAAAAAGAUCGGAAGAGCACACGUCU
# Variants of: B1
# Test: aptazyme ON/OFF ratio, guanine; higher = stronger switching; co-transcriptional cleavage with and without guanine
row,Variant,aptazyme ON/OFF ratio
1,U7A G9C,1.25
2,U7A G9A U11C C13U,1.03
3,U7A G9A U11C C13A,1.07
4,U7A G9A U11C C13G,1.08
5,U7A G9A U10C U11A C12A C13G,1.05
6,U7A G9A U10C U11A C12A C13U,1.19
7,U7A G9A U10C U11A C12A C13A,1.2
8,U7A G9A U10A U11C C13U,1.06
9,U7A G9A U10A U11C C13A,1.02
10,U7A G9A U10A U11C C13G,1.1
11,U7A G9A C12G C13G,1.24
12,U7A G9A C12G C13A,1.12
13,U7A G9A C12G C13U,1.17
14,U7A G9A U10A C12G,1.21
15,U7A G9A U10A C12A,1.3
16,U7A G9A U10A C12U,1.21
17,U7A G9A U10C C12U,1.26
18,U7A G9A U10C C12A,1.43
19,U7A G9A U10C C12G,1.34
20,U7A G9C U10A U11G C12A C13A,1.11
21,U7A G9C U10A U11G C12A C13U,1.05
22,U7A G9C U10A U11G C12A C13G,1.07
23,U7A G9A U10C U11A C12U C13A,1.2
24,U7A G9A U10C U11A C12U C13U,1.22

row,Variant,aptazyme ON/OFF ratio
1,U7A G9A U10C U11A C12U C13G,1.23
2,U7A G9C U10A C12A C13G,1.09
3,U7A G9C U10A C12A C13A,1.14
4,U7A G9C U10A C12A C13U,1.23
5,U7A G9A U10C C12G C13A,1.15
6,U7A G9A U10C C12G C13G,1.17
7,U7A G9A U10C C12G C13U,1.2
8,U7A G9C U10A C12U,1.14
9,U7A G9C U10A C12A,1.11
10,U7A G9C U10A C12G,1.13
11,U7A G9A U10A C13G,1.09
12,U7A G9A U10A C13U,1.29
13,U7A G9A U10A C13A,1.26
14,U7A G9A U11G C13G,1.12
15,U7A G9A U11G C13U,1.38
16,U7A G9A U11G C13A,1.26
17,U7A G9A U10A U11G C12U C13U,1.42
18,U7A G9A U10A U11G C12U C13A,1.17
19,U7A G9A U10A U11G C12U C13G,1.15
20,U7A G9C U10A U11G C12G,1.09
21,U7A G9C U10A U11G C12U,1.07
22,U7A G9C U10A U11G C12A,1.04
23,U7A G9A U10A U11A C12U C13A,1.19
24,U7A G9A U10A U11A C12U C13U,1.39

row,Variant,aptazyme ON/OFF ratio
1,U7A G9A U10A U11A C12U C13G,1.32
2,U7A G9C U10A U11A C12G C13G,1.1
3,U7A G9C U10A U11A C12G C13U,1.1
4,U7A G9C U10A U11A C12G C13A,1.04
5,U7A G9A U10G C12A C13G,1.15
6,U7A G9A U10G C12A C13A,1.17
7,U7A G9A U10G C12A C13U,1.34
8,U7A G9A U10G U11C C13A,1.19
9,U7A G9A U10G U11C C13G,1.11
10,U7A G9A U10G U11C C13U,1.02
11,U7A G9A U10G U11A C13G,1.03
12,U7A G9A U10G U11A C13U,1.06
13,U7A G9A U10G U11A C13A,1.09
14,U7A G9A U10A C12A C13U,1.29
15,U7A G9A U10A C12A C13A,1.1
16,U7A G9A U10A C12A C13G,1.07
17,U7A G9A U10C U11A C12G C13U,1.16
18,U7A G9A U10C U11A C12G C13G,1.32
19,U7A G9A U10C U11A C12G C13A,1.19
20,U7A G9C U10A U11G C13G,1.06
21,U7A G9C U10A U11G C13A,1.03
22,U7A G9C U10A U11G C13U,1.09
23,U7A G9A U10G U11G C13G,1.25
24,U7A G9A U10G U11G C13A,1.25

row,Variant,aptazyme ON/OFF ratio
1,U7A G9A U10G U11G C13U,1.09
2,U7A G9A U10G U11G C12A,1.06
3,U7A G9A U10G U11G C12U,1.47
4,U7A G9A U10G U11G C12G,1.38
5,U7A G9A U10A U11A C12G C13A,1.09
6,U7A G9A U10A U11A C12G C13U,1.05
7,U7A G9A U10A U11A C12G C13G,1.21
8,U7A G9A U10C U11C C13U,1.02
9,U7A G9A U10C U11C C13G,1.03
10,U7A G9A U10C U11C C13A,0.975
11,U7A G9A U10C U11G C12A C13U,1.1
12,U7A G9A U10C U11G C12A C13A,1.18
13,U7A G9A U10C U11G C12A C13G,1.24
14,U7A G9A U10G C12U,1.41
15,U7A G9A U10G C12G,1.21
16,U7A G9A U10G C12A,1.13
17,U7A G9A U10C U11C C12U C13G,1.04
18,U7A G9A U10C U11C C12U C13U,1.04
19,U7A G9A U10C U11C C12U C13A,1.03
20,U7A G9C C13G,1.06
21,U7A G9C C13A,1.02
22,U7A G9C C13U,1.12
23,U7A G9A U10C C12U C13U,1.2
24,U7A G9A U10C C12U C13G,1.12

row,Variant,aptazyme ON/OFF ratio
1,U7A G9A U10C C12U C13A,1.08
2,U7A G9A U10A C12G C13A,1.25
3,U7A G9A U10A C12G C13U,1.41
4,U7A G9A U10A C12G C13G,1.3
5,U7A G9A U10G U11C C12G,1.08
6,U7A G9A U10G U11C C12A,1.21
7,U7A G9A U10G U11C C12U,1.08
8,U7A G9A U10A U11A C12A,1.25
9,U7A G9A U10A U11A C12U,1.21
10,U7A G9A U10A U11A C12G,1.15
11,U7A G9C U10A U11C C13U,1.05
12,U7A G9C U10A U11C C13A,1.01
13,U7A G9C U10A U11C C13G,1.06
14,U7A G9C U10A U11A C12U,1.07
15,U7A G9C U10A U11A C12G,1.06
16,U7A G9C U10A U11A C12A,1.06
17,U7A G9A U10G C12G C13U,1.18
18,U7A G9A U10G C12G C13G,1.11
19,U7A G9A U10G C12G C13A,1.21
20,U7A G9A U10C U11A C13A,1.15
21,U7A G9A U10C U11A C13G,1.12
22,U7A G9A U10C U11A C13U,1.19
23,U7A G9A U10G C12U C13U,1.32
24,U7A G9A U10G C12U C13G,1.14

row,Variant,aptazyme ON/OFF ratio
1,U7A G9A U10G C12U C13A,1.06
2,U7A G9A U10C C12A C13A,1.13
3,U7A G9A U10C C12A C13U,1.21
4,U7A G9A U10C C12A C13G,1.22
5,U7A G9C C12G C13U,1.05
6,U7A G9C C12G C13G,1.05
7,U7A G9C C12G C13A,1.05
8,U7A G9A U11C C12G,1.18
9,U7A G9A U11C C12A,1.18
10,U7A G9A U11C C12U,1.17
11,U7A G9C U10A U11C C12G C13U,1.17
12,U7A G9C U10A U11C C12G C13G,1.12
13,U7A G9C U10A U11C C12G C13A,1.08
14,U7A G9C U10A U11C C12U C13U,1.12
15,U7A G9C U10A U11C C12U C13G,1.13
16,U7A G9C U10A U11C C12U C13A,1.1
17,U7A G9A U10C U11G C13A,1.22
18,U7A G9A U10C U11G C13G,1.19
19,U7A G9A U10C U11G C13U,1.25
20,U7A G9A U11C C12G C13A,1.18
21,U7A G9A U11C C12G C13G,1.17
22,U7A G9A U11C C12G C13U,1.15
23,U7A G9A U10C U11G C12G,1.3
24,U7A G9A U10C U11G C12A,1.04

row,Variant,aptazyme ON/OFF ratio
1,U7A G9A U10C U11G C12U,1.29
2,U7A G9A U10G U11A C12A C13A,1.11
3,U7A G9A U10G U11A C12A C13U,1.21
4,U7A G9A U10G U11A C12A C13G,1.15
5,U7A G9A C12A C13A,1.13
6,U7A G9A C12A C13G,1.13
7,U7A G9A C12A C13U,1.37
8,U7A G9A U10C U11C C12A,1.18
9,U7A G9A U10C U11C C12U,1.03
10,U7A G9A U10C U11C C12G,1.09
11,U7A G9A U11A C13A,1.17
12,U7A G9A U11A C13U,1.06
13,U7A G9A U11A C13G,1.11
14,U7A G9A U10C U11G C12U C13U,1.3
15,U7A G9A U10C U11G C12U C13A,1.15
16,U7A G9A U10C U11G C12U C13G,1.21
17,U7A G9A U10A U11G C12A C13G,1.22
18,U7A G9A U10A U11G C12A C13A,1.16
19,U7A G9A U10A U11G C12A C13U,1.09
20,U7A G9A U10G U11C C12A C13G,1.14
21,U7A G9A U10G U11C C12A C13A,1.16
22,U7A G9A U10G U11C C12A C13U,1.11
23,U7A G9C U10A U11A,1.07
